Consider 167 variants from the RNAGym collection of RNA variant scans (doi:10.1021/acssynbio.7b00057).

First the molecules themselves.
B1: Pistol ribozyme (parent)
chain: GGGUCGUUGUUCCAUAAUCGCGUGGAUAUGGCACGCAAGUUUCUACCGGGCACCGUAAAUGUCCGACUGGAGCCGUUCGGGCGGCUAUAAACAGACCUCAGGCCCGAAGCGUGGCGGCACCUGCCGCCGGUGGUAAAAAAGAUCGGAAGAGCACACGUCU

The variants in the data set derive from B1. In words: aptazyme ON/OFF ratio, guanine; higher = stronger switching; co-transcriptional cleavage with and without guanine.
With U7G G9U U10A U11G C12A C13A, the “aptazyme ON/OFF ratio” value was found to be 1.11. With U7G G9U U10A U11G C12A C13G the figure was 1.11; with U7G G9U U11A C12U, 1.32. With U7G G9U U11A C12G the figure was 1.46; with U7G G9U U11A C12A, 1.56. The figure for U7G U8A C12A C13G is 1.14; for U7G U8A C12A C13A it is 1.27; for U7G U8A C12A C13U it is 1.23. Turning to U7G G9U U10G C13A, the “aptazyme ON/OFF ratio” value came to 1.39. As to U7G G9U U10G C13U, the “aptazyme ON/OFF ratio” value came to 1.48.

Consider U7G G9U U10G C13G, for which the “aptazyme ON/OFF ratio” value is 1.21. For the variant U7G G9U U11A C12G C13U, the “aptazyme ON/OFF ratio” value turned out to be 1.36. With U7G G9U U11A C12G C13G the figure was 1.23; with U7G G9U U11A C12G C13A, 1.1. The figure for U7G G9U U11G C12A is 1.82. In the case of U7G G9U U11G C12G, the “aptazyme ON/OFF ratio” value worked out at 1.74. On to U7G G9U U11G C12U, for which the “aptazyme ON/OFF ratio” value was 1.2.

In the case of U7G G9U U10A U11G C12G, the “aptazyme ON/OFF ratio” value came to 1.26. The figure for U7G G9U U10A U11G C12A is 1.13. With U7G G9U U10A U11G C12U the figure was 1.4. As to U7G G9U U10C C12A C13G, the “aptazyme ON/OFF ratio” value was determined as 1.21.

Turning to U7G G9U U10C C12A C13U, the “aptazyme ON/OFF ratio” value is 1.35. The figure for U7G G9U U10C C12A C13A is 1.42.

With U7G G9C U11C C13G, the “aptazyme ON/OFF ratio” value was determined as 1.06. U7G G9C U11C C13U: the “aptazyme ON/OFF ratio” value amounted to 1.39.

With U7G G9C U11C C13A, the “aptazyme ON/OFF ratio” value was found to be 1.42. The figure for U7G G9U U10C U11C C12U C13A is 1.25; for U7G G9U U10C U11C C12U C13G it is 1.23; for U7G G9U U10C U11C C12U C13U it is 1.29. The figure for U7G G9C U11C C12G C13U is 1.36. The figure for U7G G9C U11C C12G C13G is 1.07; for U7G G9U U10A U11C C12A C13G it is 1.21; for U7G G9U U10A U11C C12A C13A it is 1.24. Turning to U7G G9U U10A U11C C12A C13U, the “aptazyme ON/OFF ratio” value was determined as 1.46. With U7G G9U U11A the figure was 1.42; with U7G G9U U11C, 4.69.

As for U7G G9U U11G, the “aptazyme ON/OFF ratio” value was 2.13. With U7G G9U U10C U11A C12A C13G the figure was 1.16. With U7G G9U U10C U11A C12A C13A the figure was 1.22; with U7G G9U U10C U11A C12A C13U, 1.36; with U7G G9C U11C C12U C13U, 1.25. Turning to U7G G9C U11C C12U C13A, the “aptazyme ON/OFF ratio” value worked out at 1.37. The figure for U7G G9C U11C C12U C13G is 1.27; for U7G G9U U10G C12U C13U it is 1.25; for U7G G9U U10G C12U C13A it is 1.28. For the variant U7G G9U U10G C12U C13G, the “aptazyme ON/OFF ratio” value came to 1.34. The figure for U7G G9U U10A U11C C12U C13A is 1.39; for U7G G9U U10A U11C C12U C13G it is 1.27; for U7G G9U U10A U11C C12U C13U it is 1.39. In the case of U7G G9U U10G U11G C12U C13U, the “aptazyme ON/OFF ratio” value came out at 1.29. With U7G G9U U10G U11G C12U C13G the figure was 1.05; with U7G G9U U10G U11G C12U C13A, 1.22. The figure for U7G G9U U10A C12A C13U is 1.75; for U7G G9U U10A C12A C13G it is 1.26.

U7G G9U U10A C12A C13A: the “aptazyme ON/OFF ratio” value stood at 1.38. The figure for U7G G9U U10G U11C C12A is 1.62; for U7G G9U U10G U11C C12G it is 1.48.

In the case of U7G G9U U10G U11C C12U, the “aptazyme ON/OFF ratio” value was determined as 1.17. For U7G G9U U11G C12A C13G, the “aptazyme ON/OFF ratio” value amounted to 1.2. Consider U7G G9U U11G C12A C13A, for which the “aptazyme ON/OFF ratio” value came out at 1.11. With U7G G9U U11G C12A C13U the figure was 1.26; with U7G G9U U10C U11G C12G C13U, 1.06. With U7G G9U U10C U11G C12G C13G the figure was 1.12; with U7G G9U U10C U11G C12G C13A, 1.13.

Regarding U7G U8A G9A U10A C12G, the “aptazyme ON/OFF ratio” value is 1.19. With U7G U8A G9A U10A C12U the figure was 1.19; with U7G U8A G9A U10A C12A, 1.17; with U7G G9U U10C U11C C12A C13U, 1.47. As for U7G G9U U10C U11C C12A C13A, the “aptazyme ON/OFF ratio” value turned out to be 1.37. With U7G G9U U10C U11C C12A C13G the figure was 1.4; with U7G U8A G9A U10A U11A, 1.45; with U7G G9U U10A U11C C12U, 1.32.

U7G G9U U10A U11C C12G: the “aptazyme ON/OFF ratio” value came out at 1.5.

For the variant U7G G9U U10A U11C C12A, the “aptazyme ON/OFF ratio” value came to 1.56. The figure for U7G U8A G9A U10A C12G C13A is 1.06; for U7G U8A G9A U10A C12G C13G it is 1.09. The figure for U7G U8A G9A U10A C12G C13U is 1.1. The figure for U7G G9U U11G C12U C13G is 1.37. Regarding U7G G9U U11G C12U C13U, the “aptazyme ON/OFF ratio” value was 1.44. With U7G G9U U11G C12U C13A the figure was 1.31; with U7G G9U U10A U11G C12U C13U, 1.27.

As for U7G G9U U10A U11G C12U C13G, the “aptazyme ON/OFF ratio” value was 1.12. The figure for U7G G9U U10A U11G C12U C13A is 1.23; for U7G G9U U10G U11C C12U C13A it is 1.23; for U7G G9U U10G U11C C12U C13U it is 1.44. With U7G G9U U10G U11C C12U C13G the figure was 1.25. With U7G G9U C12G C13U, the “aptazyme ON/OFF ratio” value was 1.36. With U7G G9U C12G C13A the figure was 1.16; with U7G G9U C12G C13G, 1.22. With U7G U8A G9A U10A C13U the figure was 1.11; with U7G U8A G9A U10A C13A, 1.19. With U7G U8A G9A U10A C13G the figure was 1.1; with U7G U8A G9A U10A U11A C12A, 1.18. U7G G9U U10C U11C C12G C13G: the “aptazyme ON/OFF ratio” value worked out at 1.2.

Consider U7G G9U U10C U11C C12G C13A, for which the “aptazyme ON/OFF ratio” value turned out to be 1.17. The figure for U7G G9U U10C U11C C12G C13U is 1.31; for U7G G9C U11G it is 1.48. On to U7G G9U U11G C12G C13U, for which the “aptazyme ON/OFF ratio” value came out at 1.29. The figure for U7G G9U U11G C12G C13A is 1.19; for U7G G9U U11G C12G C13G it is 1.21; for U7G U8A C12U C13A it is 1.43. As for U7G U8A C12U C13G, the “aptazyme ON/OFF ratio” value came out at 1.38. With U7G U8A C12U C13U the figure was 1.42; with U7G G9C U11G C13A, 1.29. Consider U7G G9C U11G C13U, for which the “aptazyme ON/OFF ratio” value stood at 1.17. With U7G G9C U11G C13G the figure was 1.31; with U7G U8A G9A C12U C13A, 1.13. U7G U8A G9A C12U C13U: the “aptazyme ON/OFF ratio” value amounted to 1.08. The figure for U7G U8A G9A C12U C13G is 1.1; for U7G G9U U10G U11G C12A C13G it is 1.07. The figure for U7G G9U U10G U11G C12A C13U is 1.19; for U7G G9U U10G U11G C12A C13A it is 1.11. With U7G G9U U10A U11G C13A the figure was 1.13. Take U7G G9U U10A U11G C13G: the “aptazyme ON/OFF ratio” value was found to be 1.15. With U7G G9U U10A U11G C13U the figure was 1.29; with U7G G9U U10G U11G C12G C13U, 1.27. In the case of U7G G9U U10G U11G C12G C13G, the “aptazyme ON/OFF ratio” value was 1.17.

For the variant U7G G9U U10G U11G C12G C13A, the “aptazyme ON/OFF ratio” value is 1.1.

For the variant U7G G9U U10G U11C C13U, the “aptazyme ON/OFF ratio” value came to 1.1.

For the variant U7G G9U U10G U11C C13A, the “aptazyme ON/OFF ratio” value is 1.2. The figure for U7G G9U U10G U11C C13G is 1.11. With U7G U8A G9A C12G C13U, the “aptazyme ON/OFF ratio” value was found to be 1.11.

Regarding U7G U8A G9A C12G C13G, the “aptazyme ON/OFF ratio” value amounted to 1.04. Take U7G U8A G9A C12G C13A: the “aptazyme ON/OFF ratio” value is 1.13.

Regarding U7G G9U U10A U11C C13G, the “aptazyme ON/OFF ratio” value was 1.12. The figure for U7G G9U U10A U11C C13U is 1.18; for U7G G9U U10A U11C C13A it is 1.35; for U7G U8A G9A C12G it is 1.18. U7G U8A G9A C12U: the “aptazyme ON/OFF ratio” value turned out to be 1.12. With U7G U8A G9A C12A the figure was 1.06; with U7G G9U U10C U11G, 2.9; with U7G G9U U10C U11C, 1.42. The figure for U7G G9U U10C U11A is 3.43; for U7G G9U U10G C12A C13A it is 1.12. The figure for U7G G9U U10G C12A C13G is 1.12. U7G G9U U10G C12A C13U: the “aptazyme ON/OFF ratio” value amounted to 1.41. In the case of U7G G9U U10G U11C C12G C13U, the “aptazyme ON/OFF ratio” value amounted to 1.36. With U7G G9U U10G U11C C12G C13G the figure was 1.07. The figure for U7G G9U U10G U11C C12G C13A is 1.16. The figure for U7G G9U U10A U11A C12U C13G is 1.29; for U7G G9U U10A U11A C12U C13A it is 0.962; for U7G G9U U10A U11A C12U C13U it is 1.28. Consider U7G G9U U10G U11G C13U, for which the “aptazyme ON/OFF ratio” value amounted to 1.3. With U7G G9U U10G U11G C13G the figure was 1.18. With U7G G9U U10G U11G C13A the figure was 1.22; with U7G G9U U10C C12U C13A, 1.38.

For U7G G9U U10C C12U C13G, the “aptazyme ON/OFF ratio” value is 1.31. The figure for U7G G9U U10C C12U C13U is 1.34; for U7G G9U U10C U11G C12A it is 1.13.

Consider U7G G9U U10C U11G C12U, for which the “aptazyme ON/OFF ratio” value worked out at 1.49.

For U7G G9U U10C U11G C12G, the “aptazyme ON/OFF ratio” value turned out to be 1.25. With U7G G9U U10G U11A C13G the figure was 1.16. With U7G G9U U10G U11A C13U the figure was 1.17. With U7G G9U U10G U11A C13A the figure was 1.15. With U7G G9U U10G U11G C12U, the “aptazyme ON/OFF ratio” value was determined as 1.29. On to U7G G9U U10G U11G C12G, for which the “aptazyme ON/OFF ratio” value worked out at 1.16.

In the case of U7G G9U U10G U11G C12A, the “aptazyme ON/OFF ratio” value amounted to 1.11. As to U7G U8A C12U, the “aptazyme ON/OFF ratio” value was 1.44. In the case of U7G U8A C12G, the “aptazyme ON/OFF ratio” value stood at 1.35. In the case of U7G U8A C12A, the “aptazyme ON/OFF ratio” value is 1.27. The figure for U7G G9U is 2.19. The figure for U7G G9U U10A U11C is 1.17. Turning to U7G G9U U10A U11A, the “aptazyme ON/OFF ratio” value came to 3.18. The figure for U7G G9U U10A U11G is 3.03.

On to U7G G9U U11C C13G, for which the “aptazyme ON/OFF ratio” value amounted to 1.05. With U7G G9U U11C C13A the figure was 1.37; with U7G G9U U11C C13U, 1.65.
